This is an account of results in patent US20240392020A1 (JIANGSU HENGRUI PHARMACEUTICALS, published 2024).

Read-outs that look alike come from different tables or passages of the source.

The target in assay [1] is T1, hIL-5 (human, UniProt P05113 20-134).
T1 construct: bought
In words: ELISA.
Protocol: (§1) For an antibody targeting a soluble protein, the binding activity of the antibody against the soluble protein was detected by ELISA. […] After the blocking was completed, the blocking solution was discarded; and the plate was washed 3 times with a PBST buffer (pH 7.4, PBS containing 0.1% tween-20). 100 μL of the antibody solution diluted in a gradient was added to each well, and the mixture was incubated at 37° C. for 1 h. After the incubation was completed, the plate was washed 3 times with PBST. […] The plate was washed 3 times with PBST. […] The reaction was stopped by adding 50 μL of 1 M H₂SO₄ to each well. The absorbance values at 450 nm were read on a microplate reader, the binding curves of the antibodies to an antigen were fitted with software, and the EC₅₀ values were calculated.

Assay [2] concerns the target T1, hIL-5. In words: ELISA. This is another data set of the same source.
Protocol: as §1
The target in assay [3] is T1, hIL-5. In words: ELISA. This is another data set of the same source. For orientation: ELISA stands for enzyme-linked immunosorbent assay.
Protocol: as §1
In assay [4] the target is T2, B7H3 on the recombinant cell line CT26-B7H3 (UniProt Q5ZPR3 29-534, limits assumed).
T2 construct: whole, on cells
T2 sequence (looked up): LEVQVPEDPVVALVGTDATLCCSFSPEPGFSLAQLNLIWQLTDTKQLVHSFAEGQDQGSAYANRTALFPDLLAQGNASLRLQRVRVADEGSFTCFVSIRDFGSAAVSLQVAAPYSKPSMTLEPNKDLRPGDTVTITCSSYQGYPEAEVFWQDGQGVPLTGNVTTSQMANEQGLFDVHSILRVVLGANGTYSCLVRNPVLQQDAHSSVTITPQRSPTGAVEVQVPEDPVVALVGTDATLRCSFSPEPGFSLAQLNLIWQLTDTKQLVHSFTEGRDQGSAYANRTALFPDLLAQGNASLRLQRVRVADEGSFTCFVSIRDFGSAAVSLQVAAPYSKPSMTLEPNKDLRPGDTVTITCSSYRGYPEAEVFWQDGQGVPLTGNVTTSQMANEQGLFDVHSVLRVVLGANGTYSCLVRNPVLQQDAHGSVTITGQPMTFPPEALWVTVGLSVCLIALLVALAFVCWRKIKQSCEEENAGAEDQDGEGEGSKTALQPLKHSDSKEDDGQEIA
Kind of assay: FACS, CT26-B7H3 cells.

Assay [5] has as its target T2, B7H3 on the recombinant cell line …. Kind of assay: FACS, CT26-B7H3 cells. The source holds these as a separate data set. For orientation: Flow cytometry measures light scatter and fluorescence of single cells or particles in a stream.

B1: R5 (antibody)
heavy: not shown
light: DIQMTQSPSSLSASVGDRVTITCLASEGISSYLAWYQQKPGKAPKLLIYGANSLQTGVPSRFSGSGSATDYTLTISSLQPEDFATYYCQQSYKFPNTFGQGTKVEVKSGAPRFLTRPKAFVVSVGKDATLSCQIVGNPTPQVSWEKDQQPVAAGARFRLAQDGDLYRLTILDLALGDSGQYVCRARNAIGEAFAAVGLQVDAEA
One may read the EC50 as the concentration at which the effect is half-maximal. Take B1: the EC50 in assay [1] came to 1.59 nM; in assay [2], 4.13 nM.

B2: R13 (antibody)
heavy: not shown
light: DIQMTQSPSSLSASVGDRVTITCLASEGISSYLAWYQQKPGKAPKLLIYGANSLQTGVPSRFSGSGSATDYTLTISSLQPEDFATYYCQQSYKFPNTFGQGTKVEVKSGAPRFLTRPKAFVVSVGKDATLSSQIVGNPTPQVSWEKDQQPVAAGARFRLAQDGDLYRLTILDLALGDSGQYVSRARNAIGEAFACVGLQVDAEA
In turn, B2 came in with an EC50 in assay [3] of 0.4 nM.

B3: R14 (antibody)
heavy: not shown
light: DIQMTQSPSSLSASVGDRVTITCLASEGISSYLAWYQQKPGKAPKLLIYGANSLQTGVPSRFSGSGSATDYTLTISSLQPEDFATYYCQQSYKFPNTFGQGTKVEVKSGAPRFKTRPKAFVVSVGKDATLSSQIVGNPTPQVSWEKDQQPVAAGARFRLAQDGDLYRLKILDLALGDSGQYVSRARNAIGEAFACVGLQVDAEA
B3: the EC50 in assay [3] worked out at 0.2 nM.

B4: F3 (antibody)
heavy: not shown
light: DTVVTQEPSFSVSPGGTVTLTCGLSSGSVSTSHYPSWYQQTPGQAPRMLIYNTNTRSSGVPDRFSGSILGNKAALTITGAQADDESDYYCAIHVDRDIWVFGGGTKLTVLSGAPRFLTRPKAFVVSVGKDATLSCQIVGNPTPQVSWEKDQQPVAAGARFRLAQDGDLYRLTILDLALGDSGQYVCRARNAIGEAFAAVGLQVDAEA
B4: the results for the EC50 in assay [4] and in assay [5] were 2.83 nM and 2.64 nM, respectively.

B5: R0 (antibody, human IgG1, kappa)
heavy: not shown
light: DIQMTQSPSSLSASVGDRVTITCLASEGISSYLAWYQQKPGKAPKLLIYGANSLQTGVPSRFSGSGSATDYTLTISSLQPEDFATYYCQQSYKFPNTFGQGTKVEVKRTVAAPSVFIFPPSDEQLKSGTASVVCLLNNFYPREAKVQWKVDNALQSGNSQESVTEQDSKDSTYSLSSTLTLSKADYEKHKVYACEVTHQGLSSPVTKSFNRGEC
B5 had an EC50 in assay [1] of 1.75 nM.

B6: H3 (antibody)
heavy: not shown
light: DIQMTQSPSSVSASVGDRVTITCRASQDIANYLSWYQQKPGKSPKLLIYGTSNLEVGVPSRFSGSRSGTDFTLTISSLQPEDFATYYCLQDKEFPRTFGGGTKVEIKSGAPRFLTRPKAFVVSVGKDATLSCQIVGNPTPQVSWEKDQQPVAAGARFRLAQDGDLYRLTILDLALGDSGQYVCRARNAIGEAFAAVGLQVDAEA
As to B6, the EC50 in assay [1] was 2.75 nM; in assay [2], 3.24 nM.

B7: R3 (antibody)
heavy: not shown
light: DIQMTQSPSSLSASVGDRVTITCLASEGISSYLAWYQQKPGKAPKLLIYGANSLQTGVPSRFSGSGSATDYTLTISSLQPEDFATYYCQQSYKFPNTFGQGTKVEVKGIPPKIEALPSDISIDEGKVLTVACAFTGEPTPEVTWSCGGRKIHSQEQGRFHIENTDDLTTLIIMDVQKQDGGLYTLSLGNEFGSDSATVNIHIRSI
B7: in assay [1], the midpoint of the response, the EC50, lay at 1.58 nM.

B8: R4 (antibody)
heavy: not shown
light: DIQMTQSPSSLSASVGDRVTITCLASEGISSYLAWYQQKPGKAPKLLIYGANSLQTGVPSRFSGSGSATDYTLTISSLQPEDFATYYCQQSYKFPNTFGQGTKVEVKGIPPKIEALPSDISIDEGKVLTVACAFTGEPTPEVTWSCGGRKIHSQEQGRFHIENTDDLTTLIIMDVQKQDGGLYTLSLGNEFGSDSATVNIHIRSI
For the molecule B8, the EC50 in assay [1] came out at 1.67 nM.

B9: H2 (antibody)
heavy: not shown
light: DIQMTQSPSSVSASVGDRVTITCRASQDIANYLSWYQQKPGKSPKLLIYGTSNLEVGVPSRFSGSRSGTDFTLTISSLQPEDFATYYCLQDKEFPRTFGGGTKVEIKFDPVYKVKPNPPHNLSVINSEELSSILKLTWTNPSIKSVIILKYNIQYRTKDASTWSQIPPEDTASTRSSFTVQDLKPFTEYVFRIRCMKEDGKGYWSDWSEEASGIT
Consider B9, for which the concentration giving a half-maximal response (EC50) in assay [1] stood at 24.4 nM.

B10: H0 (antibody, human IgG1, kappa)
heavy: not shown
light: DIQMTQSPSSVSASVGDRVTITCRASQDIANYLSWYQQKPGKSPKLLIYGTSNLEVGVPSRFSGSRSGTDFTLTISSLQPEDFATYYCLQDKEFPRTFGGGTKVEIKRTVAAPSVFIFPPSDEQLKSGTASVVCLLNNFYPREAKVQWKVDNALQSGNSQESVTEQDSKDSTYSLSSTLTLSKADYEKHKVYACEVTHQGLSSPVTKSFNRGEC
Molecule B10 had a 50% effective concentration (EC50) in assay [1] of 1.74 nM.

B11: R6 (antibody)
heavy: not shown
light: DIQMTQSPSSLSASVGDRVTITCLASEGISSYLAWYQQKPGKAPKLLIYGANSLQTGVPSRFSGSGSATDYTLTISSLQPEDFATYYCQQSYKFPNTFGQGTKVEVKQGSPPCFLRFPRPVRVVSGAEAELKCVVLGEPPPVVVWEKGGQQLAASERLSFPADGAEHGLLLTAALPTDAGVYVCRARNAAGEAYAAAAVTVLEPP
In the case of B11, in assay [1], the EC50 was determined as 2.02 nM.

B12: R1 (antibody)
heavy: not shown
light: DIQMTQSPSSLSASVGDRVTITCLASEGISSYLAWYQQKPGKAPKLLIYGANSLQTGVPSRFSGSGSATDYTLTISSLQPEDFATYYCQQSYKFPNTFGQGTKVEVKGILQPDPPANITVTAVARNPRWLSVTWQDPHSWNSSFYRLRFELRYRAERSKTFTTWMVKDLQHHCVIHDAWSGLRHVVQLRAQEEFGQGEWSEWSPEAMGTPW
In turn, B12 returned an EC50 in assay [1] of 24.4 nM.

B13: H4 (antibody)
heavy: not shown
light: DIQMTQSPSSVSASVGDRVTITCRASQDIANYLSWYQQKPGKSPKLLIYGTSNLEVGVPSRFSGSRSGTDFTLTISSLQPEDFATYYCLQDKEFPRTFGGGTKVEIKQGSPPCFLRFPRPVRVVSGAEAELKCVVLGEPPPVVVWEKGGQQLAASERLSFPADGAEHGLLLTAALPTDAGVYVCRARNAAGEAYAAAAVTVLEPP
Regarding B13, the figures for the EC50 in assay [1] and in assay [2] were 2.7 nM and 3.28 nM, respectively.

B14: F4 (antibody)
heavy: not shown
light: DTVVTQEPSFSVSPGGTVTLTCGLSSGSVSTSHYPSWYQQTPGQAPRMLIYNTNTRSSGVPDRFSGSILGNKAALTITGAQADDESDYYCAIHVDRDIWVFGGGTKLTVLQGSPPCFLRFPRPVRVVSGAEAELKCVVLGEPPPVVVWEKGGQQLAASERLSFPADGAEHGLLLTAALPTDAGVYVCRARNAAGEAYAAAAVTVLEPP
Take B14: the EC50 in assay [4] turned out to be 2.17 nM; in assay [5] it was 3.01 nM.

B15: F13 (antibody)
heavy: not shown
light: DTVVTQEPSFSVSPGGTVTLTCGLSSGSVSTSHYPSWYQQTPGQAPRMLIYNTNTRSSGVPDRFSGSILGNKAALTITGAQADDESDYYCAIHVDRDIWVFGGGTKLTVLQGSPPEFLRFPRPVRVVSGAEAELKCVVLGEPPPVVVWEKGGQQLAASERLSFPADGAEHGLLLTAALPTDAGVYVCRARNAAGECYAAAAVTVLEPP
As to B15, in assay [5], the EC50 came to 6.08 nM.

B16: F14 (antibody)
heavy: not shown
light: DTVVTQEPSFSVSPGGTVTLTCGLSSGSVSTSHYPSWYQQTPGQAPRMLIYNTNTRSSGVPDRFSGSILGNKAALTITGAQADDESDYYCAIHVDRDIWVFGGGTKLTVLQGSPPEFLRFPRPVRVVSGAEAELKSVVLGEPPPVVVWEKGGQQLAASERLSFPADGAEHGLLLTAALPTDAGCYVSRARNAAGEAYAAAAVTVLEPP
With B16, the EC50 in assay [5] was found to be 5.15 nM.

B17: F12 (antibody)
heavy: not shown
light: DTVVTQEPSFSVSPGGTVTLTCGLSSGSVSTSHYPSWYQQTPGQAPRMLIYNTNTRSSGVPDRFSGSILGNKAALTITGAQADDESDYYCAIHVDRDIWVFGGGTKLTVLQGSPPEFLRFPRPVRVVSGAEAELKCVVLGEPPPVVVWEKGGQQLAASERLSFPADGAEHGLLLTAALPTDAGVYVCRARNAACEAYAAAAVTVLEPP
For the molecule B17, the EC50 in assay [5] came to 8.19 nM.

B18: F15 (antibody)
heavy: not shown
light: DTVVTQEPSFSVSPGGTVTLTCGLSSGSVSTSHYPSWYQQTPGQAPRMLIYNTNTRSSGVPDRFSGSILGNKAALTITGAQADDESDYYCAIHVDRDIWVFGGGTKLTVLQGSPPEFLRFPRPVRVVSGAEAELKSVVLGEPPPVVVWEKGGQQLAASERLSFPADGAEHGLLLTAALPTDAGVYVSRARNAACEAYAAAAVTVLEPP
In the case of B18, the EC50 in assay [5] came to 4.44 nM.

B19: R2 (antibody)
heavy: not shown
light: DIQMTQSPSSLSASVGDRVTITCLASEGISSYLAWYQQKPGKAPKLLIYGANSLQTGVPSRFSGSGSATDYTLTISSLQPEDFATYYCQQSYKFPNTFGQGTKVEVKFDPVYKVKPNPPHNLSVINSEELSSILKLTWTNPSIKSVIILKYNIQYRTKDASTWSQIPPEDTASTRSSFTVQDLKPFTEYVFRIRCMKEDGKGYWSDWSEEASGIT
B19 yielded an EC50 in assay [1] of 18.4 nM.

B20: H1 (antibody)
heavy: not shown
light: DIQMTQSPSSVSASVGDRVTITCRASQDIANYLSWYQQKPGKSPKLLIYGTSNLEVGVPSRFSGSRSGTDFTLTISSLQPEDFATYYCLQDKEFPRTFGGGTKVEIKGILQPDPPANITVTAVARNPRWLSVTWQDPHSWNSSFYRLRFELRYRAERSKTFTTWMVKDLQHHCVIHDAWSGLRHVVQLRAQEEFGQGEWSEWSPEAMGTPW
As for B20, it took 19.4 nM to reach a half-maximal effect in assay [1] (EC50).
